We go through five molecules from paper PMC9541495, “Understanding the interaction of 14‐3‐3 proteins with hDMX and hDM2: a structural and biophysical study” (The Febs Journal, 2022).

One may read the Kd as the concentration at which binding is half-saturated. What is called koff is a measure of how fast the partners let go of each other. High values mean fast dissociation, low ones slow dissociation. For orientation: kon means the rate constant with which the complex forms. A higher kon goes with fast association. For orientation: stoichiometry N means a count of units in the complex or per binding partner.

The chains are these.
B1: FAM‐Ahx‐hDMX_(335‐373) ^pSer342/pSer367 (peptide)
peptide: {FAM-Ahx}-SKLTHSL[pS]TSDITAIPEKENEGNDVPDCRRTI[pS]APVVRP-NH2
notes: hDMX (human double minute 4 protein, hDM4), human, residues 335-373; Tracer form used in the FA assays; source: synthetic peptide (Fmoc SPPS on Rink amide ProTide resin, HPLC purified)

[ ]: non-standard residue; d: D form. pS = N[C@@H](COP(=O)(O)O)C(=O)O; FAM = 5,6-carboxyfluorescein; Ahx = NCCCCCC(=O)O

What all share (conditions): both partners purified
The target of one assay is T1, 14‐3‐3ζ (human, UniProt P63104 1-245).
T1 construct: 14-3-3 zeta, human, full-length protein from the pProEx HTb-His-14-3-3 construct; Written as the protomer; tag removal is told only for the ∆C proteins; source: E. coli BL21(DE3), purified (Ni2+-NTA, dialysis)
T1 sequence (looked up): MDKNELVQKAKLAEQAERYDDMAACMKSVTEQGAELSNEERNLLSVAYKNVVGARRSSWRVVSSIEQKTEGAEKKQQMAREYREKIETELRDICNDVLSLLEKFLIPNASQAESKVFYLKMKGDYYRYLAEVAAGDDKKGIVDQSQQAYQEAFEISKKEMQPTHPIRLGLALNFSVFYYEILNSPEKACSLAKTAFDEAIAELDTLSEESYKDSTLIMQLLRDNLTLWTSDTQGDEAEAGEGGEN
Put plainly: fluorescence polarisation; fluorescence anisotropy, direct titration: 14-3-3 protein titrated (1/2 dilution series) against 50 nM FAM-Ahx tracer peptide; 10 mM HEPES, 150 mM NaCl, 0.1% Tween 20, 0.1% BSA, pH 7.4; 384 well plates, triplicates; protein concentration as 14-3-3 monomer; 1:1 fit, biphasic curves fitted as two separate 1:1 events (Kd1, Kd2). (In general: Fluorescence polarisation rises when a labelled molecule tumbles more slowly, as on binding a larger partner.)

In a further assay the target is T2, 14‐3‐3τ (human, UniProt P27348 1-245).
T2 construct: 14-3-3 tau/theta, human, full-length protein from the pProEx HTb-His-14-3-3 construct; Written as the protomer; tag removal is told only for the ∆C proteins; also called τ/θ; source: E. coli BL21(DE3), purified (Ni2+-NTA, dialysis)
T2 sequence (looked up): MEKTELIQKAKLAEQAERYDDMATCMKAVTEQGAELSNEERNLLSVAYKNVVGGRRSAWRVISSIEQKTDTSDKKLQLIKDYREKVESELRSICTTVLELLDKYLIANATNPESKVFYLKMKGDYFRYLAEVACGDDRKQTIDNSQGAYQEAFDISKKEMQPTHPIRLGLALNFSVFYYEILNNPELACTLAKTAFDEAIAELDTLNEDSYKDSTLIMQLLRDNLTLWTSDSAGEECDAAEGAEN
The assay is described as above.

Another assay concerns the target T3, 14‐3‐3σ (human, UniProt P31947 1-248).
T3 construct: 14-3-3 sigma, human, full-length protein from the pProEx HTb-His-14-3-3 construct (used in the FA assays); Written as the protomer; tag removal is told only for the ∆C proteins; source: E. coli BL21(DE3), purified (Ni2+-NTA, dialysis)
T3 sequence (looked up): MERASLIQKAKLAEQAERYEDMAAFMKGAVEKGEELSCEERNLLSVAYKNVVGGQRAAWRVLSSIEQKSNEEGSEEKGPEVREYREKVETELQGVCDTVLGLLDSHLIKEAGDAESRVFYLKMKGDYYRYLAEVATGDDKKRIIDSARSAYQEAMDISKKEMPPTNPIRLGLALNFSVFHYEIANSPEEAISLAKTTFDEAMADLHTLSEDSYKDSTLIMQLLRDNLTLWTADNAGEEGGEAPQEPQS
The description is as above.

The next assay deals with T4, 14‐3‐3ε (human, UniProt P62258 1-255).
T4 construct: 14-3-3 epsilon, human, full-length protein from the pProEx HTb-His-14-3-3 construct; Written as the protomer; tag removal is told only for the ∆C proteins; source: E. coli BL21(DE3), purified (Ni2+-NTA, dialysis)
T4 sequence (looked up): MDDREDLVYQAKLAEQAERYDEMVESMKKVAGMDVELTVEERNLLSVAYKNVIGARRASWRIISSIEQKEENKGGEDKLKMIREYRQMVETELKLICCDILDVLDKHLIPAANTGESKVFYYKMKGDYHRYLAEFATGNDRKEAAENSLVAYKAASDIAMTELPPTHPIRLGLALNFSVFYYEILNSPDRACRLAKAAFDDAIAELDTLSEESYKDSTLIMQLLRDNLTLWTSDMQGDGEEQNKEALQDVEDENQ
The assay is described as above.

Assay [1] deals with T5, 14‐3‐3η (human, UniProt Q04917 1-246).
T5 construct: 14-3-3 eta, human, full-length protein from the pProEx HTb-His-14-3-3 construct; Captured on an NTA chip in SPR; source: E. coli BL21(DE3), purified (Ni2+-NTA, dialysis)
T5 sequence (looked up): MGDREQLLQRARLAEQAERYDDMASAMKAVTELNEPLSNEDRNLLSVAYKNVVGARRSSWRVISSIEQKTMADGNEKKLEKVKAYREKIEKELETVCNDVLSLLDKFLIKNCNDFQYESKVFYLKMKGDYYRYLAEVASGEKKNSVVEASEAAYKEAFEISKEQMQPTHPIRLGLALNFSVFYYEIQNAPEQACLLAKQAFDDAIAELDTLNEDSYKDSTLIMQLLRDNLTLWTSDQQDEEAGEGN
The assay can be described thus: SPR; 14-3-3η immobilised on an NTA sensor chip (Ni2+ capture and amine coupling, about 2000 RU); acetylated peptides injected, 11 serial dilutions from 10x the FA Kd; 25 °C; Biacore T200; multicycle kinetics fitted to a Langmuir model, Kd from steady state dose-response. A general note: In SPR one partner is held on a chip, and binding of the other changes the refractive index at the surface.

The target of assay [2] is T5, 14‐3‐3η. The assay can be described thus: ITC; acetylated peptide in the syringe titrated into 14-3-3η in the cell; 25 °C; 25 mM HEPES pH 7.5, 100 mM NaCl, 10 mM MgCl2, 0.5 mM TCEP; MicroCal iTC200.
Assay [3] has as its target B1. The assay can be described thus: fluorescence polarisation; fluorescence anisotropy, direct titration: 14-3-3 protein titrated (1/2 dilution series) against 50 nM FAM-Ahx tracer peptide; 10 mM HEPES, 150 mM NaCl, 0.1% Tween 20, 0.1% BSA, pH 7.4; 384 well plates, triplicates; protein concentration as 14-3-3 monomer; 1:1 fit, biphasic curves fitted as two separate 1:1 events (Kd1, Kd2).

On to B1, for which the binding result with 14‐3‐3ζ, with 14‐3‐3τ, with 14‐3‐3σ and with 14‐3‐3ε was “binds” in each case.

B2: Ac‐hDMX_(335‐373) ^pSer342/pSer367 (peptide)
peptide: Ac-SKLTHSL[pS]TSDITAIPEKENEGNDVPDCRRTI[pS]APVVRP-NH2
SMILES: CC[C@H](C)[C@H](NC(=O)[C@H](CC(=O)O)NC(=O)[C@H](CO)NC(=O)[C@@H](NC(=O)[C@H](COP(=O)(O)O)NC(=O)[C@H](CC(C)C)NC(=O)[C@H](CO)NC(=O)[C@H](Cc1c[nH]cn1)NC(=O)[C@@H](NC(=O)[C@H](CC(C)C)NC(=O)[C@H](CCCCN)NC(=O)[C@H](CO)NC(C)=O)[C@@H](C)O)[C@@H](C)O)C(=O)N[C@H](C(=O)N[C@@H](C)C(=O)N[C@H](C(=O)N1CCC[C@H]1C(=O)N[C@@H](CCC(=O)O)C(=O)N[C@@H](CCCCN)C(=O)N[C@@H](CCC(=O)O)C(=O)N[C@@H](CC(N)=O)C(=O)N[C@@H](CCC(=O)O)C(=O)NCC(=O)N[C@@H](CC(N)=O)C(=O)N[C@@H](CC(=O)O)C(=O)N[C@H](C(=O)N1CCC[C@H]1C(=O)N[C@@H](CC(=O)O)C(=O)N[C@@H](CS)C(=O)N[C@@H](CCCNC(=N)N)C(=O)N[C@@H](CCCNC(=N)N)C(=O)N[C@H](C(=O)N[C@H](C(=O)N[C@@H](COP(=O)(O)O)C(=O)N[C@@H](C)C(=O)N1CCC[C@H]1C(=O)N[C@H](C(=O)N[C@H](C(=O)N[C@@H](CCCNC(=N)N)C(=O)N1CCC[C@H]1C(N)=O)C(C)C)C(C)C)[C@@H](C)CC)[C@@H](C)O)C(C)C)[C@@H](C)CC)[C@@H](C)O
notes: hDMX (human double minute 4 protein, hDM4), human, residues 335-373; Acetylated form used for ITC, SPR and crystallography; source: synthetic peptide (Fmoc SPPS on Rink amide ProTide resin, HPLC purified)
On to B2, for which, in the assay with 14‐3‐3η [1], the Kd was 8.6 nM, the koff was 0.0048 s⁻¹ and the kon worked out at 1.51e+06 M⁻¹ s⁻¹. In the assay with 14‐3‐3η [2], binding was characterised by a dissociation constant (Kd) of 14 ± 10 nM, the dH is -5.28 ± 0.167 kcal/mol and the “stoichiometry N” value is 0.94.

B3: 14‐3‐3β (natural protein, human, UniProt P31946 1-246, looked up)
chain: MTMDKSELVQKAKLAEQAERYDDMAAAMKAVTEQGHELSNEERNLLSVAYKNVVGARRSSWRVISSIEQKTERNEKKQQMGKEYREKIEAELQDICNDVLELLDKYLIPNATQPESKVFYLKMKGDYFRYLSEVASGDNKQTTVSNSQQAYQEAFEISKKEMQPTHPIRLGLALNFSVFYYEILNSPEKACSLAKTAFDEAIAELDTLNEESYKDSTLIMQLLRDNLTLWTSENQGDEGDAGEGEN
notes: 14-3-3 beta, human, full-length protein from the pProEx HTb-His-14-3-3 construct; Written as the protomer; tag removal is told only for the ∆C proteins; source: E. coli BL21(DE3), purified (Ni2+-NTA, dialysis)
For B3, the “Kd1 (first binding event)” value in assay [3] was determined as 0.026 ± 0.099 µM.

B4: Ac‐hDMX_(335‐349) ^pSer342 (peptide)
peptide: Ac-SKLTHSL[pS]TSDITAI-NH2
SMILES: CC[C@H](C)[C@H](NC(=O)[C@H](C)NC(=O)[C@@H](NC(=O)[C@@H](NC(=O)[C@H](CC(=O)O)NC(=O)[C@H](CO)NC(=O)[C@@H](NC(=O)[C@H](COP(=O)(O)O)NC(=O)[C@H](CC(C)C)NC(=O)[C@H](CO)NC(=O)[C@H](Cc1c[nH]cn1)NC(=O)[C@@H](NC(=O)[C@H](CC(C)C)NC(=O)[C@H](CCCCN)NC(=O)[C@H](CO)NC(C)=O)[C@@H](C)O)[C@@H](C)O)[C@@H](C)CC)[C@@H](C)O)C(N)=O
notes: hDMX (human double minute 4 protein, hDM4), human, residues 335-349; Acetylated form used for ITC and SPR; source: synthetic peptide (Fmoc SPPS, HPLC purified)
For B4, the Kd in the assay with 14‐3‐3η [1] amounted to 37000 nM. Besides, in the assay with 14‐3‐3η [2], the Kd was determined as 21000 ± 3000 nM, the dH is -5.11 ± 0.239 kcal/mol and the “stoichiometry N” value was 0.72.

B5: Ac‐hDMX_(361‐374) ^pSer367 (peptide)
peptide: Ac-DCRRTI[pS]APVVRPK-NH2
SMILES: CC[C@H](C)[C@H](NC(=O)[C@@H](NC(=O)[C@H](CCCNC(=N)N)NC(=O)[C@H](CCCNC(=N)N)NC(=O)[C@H](CS)NC(=O)[C@H](CC(=O)O)NC(C)=O)[C@@H](C)O)C(=O)N[C@@H](COP(=O)(O)O)C(=O)N[C@@H](C)C(=O)N1CCC[C@H]1C(=O)N[C@H](C(=O)N[C@H](C(=O)N[C@@H](CCCNC(=N)N)C(=O)N1CCC[C@H]1C(=O)N[C@@H](CCCCN)C(N)=O)C(C)C)C(C)C
notes: Acetylated form used for ITC, SPR and crystallography; source: synthetic peptide (Fmoc SPPS, HPLC purified)
In the assay with 14‐3‐3η [1], B5 displayed a Kd of 189 nM, a koff of 0.121 s⁻¹ and a kon of 389000 M⁻¹ s⁻¹. Besides, in the assay with 14‐3‐3η [2], the Kd was determined as 870 ± 95 nM, the dH was -3.85 ± 0.0478 kcal/mol and the “stoichiometry N” value is 1.28.
